Results reported in a protein production outcome set (Wang et al. 2014).

Test: label from the status in PepcDB records
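Further: failed if final PepcDB status was selected cloned or expressed and not failed if soluble or beyond.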

Sequence | protein production
MIKRDFRKKLTMCLASVMALNLGISVSVKADEGLKNEIKNNDITKDISIYPTPKDMTVGNSEFTLEDSVNIVGGDLADTYAFELLKNMLTEFGIKINESEIEGATTIYIGESDDNIEEMENTLEEMNVDTSSISKDEGYVLVTDENIEGNKIVIRGNDETGTFYGVKSLKQLIKKEDNKVILDEVVIKDEPSFKMRAVVEGFYGTPWSQEERLDQIKMYGEYKMNAYIYAPKSDPYHREKWREPYPASELDRMKELIKTANENKVDFVFAISPGLDIKFEGEEGEADFKALINKAETLYDMGVRSFAILWDDIENRSGVQQAEVLNRFNKEFIKNKEGVKPLITVPVEYWGSSMFNGEEVKTYTKEFAETLDKDIEVMWTGNDVIPPNGVSLEDAKKVSNVYNRKMMLWWNYPVNDYKEDKMALGPIYDLDRNLDEDVSGFIVNPMRFSDASKISTLTGADYGWNSISYEAEKSWDKAIEIIAGEMKEEFKIFANHSTRLDTGRPDSPEIKNTIDSLWEKWEAGSDISLELSNLQNEFSKMVQVPNKLRSNLENKALLNQLDSHLSKFEIYGNAGLKSIEILQDILNKDMSEFWSDNFEGIKLLRNLDGIKATIANNVVDPFIRKVHEVGNEYFNKETTVLEEKEYSYTSIGNIVDHKYSEWFISEETHVPNYMFDDKDNTGFWSAAPVQKDEFIGFDLGEAEEIKDIYLLMGRNNNDTDVLTNGVIEYSLDGENWTELEVNKGERELLVETGIKARFIRYRALSDSENKLYVRDFKVNTGKSKEKLIGDVEVKDSNINKSSEGENEIISASNINKISFEEGDSIGLAINDVKNVIGFEVLGDVESNKFVLESSFDNIEWEEVCNGTSFKDETPLVGKFFRIRAKEKTEANINEIKISLEGYSKGIVSTNRRISSNANIHPDFVADNDYGTSFVCSDTIKKGDFVQLDLGVEKKIRDISLVQGPGGDYMDGDIEYSLDGENWIKLGVVEGTDTLIKDLDVKARYVRVISTGYKDRWSRVREFTVNKTVKEFETKATSEGTYIDRSENIRDNNLNSAYIPEGEIKSGDYLLRRIFNERLVSKVTVAQSTDNLSGAKVIGKTVNGETLDLGVLDKGLNELVLKNPRQLVSVKLVWEKDAGKVEIFEVKPTFVSLDYIIEDIKNEIQRGKDVLVEHKDKENEERTQLEEALKNIENLLNNKASDDEIVRAYEDLTNKINNFIDSEPNKEEENKPSKPEGGENGSEGEGDKEDSGDKNENEDNKDENGNLPNTGSPLGAGELMLVGAALATLGGVTIKKKK | failed
MIKSFRHKGLKKFFESGSTAGIQPAHKNRLARQLHQLNVASCPDDMNLPGWGLHLLQGKNPKKQDVDGHYSISVNGNWRLTFYFDHGDAVLVDYQDYH | failed
MIKSKGDVNILLNFRHNINGEDLIIAVAQDHETGEVLMVAYMNREALRRTLETGTAHYWSTSRGKLWLKGESSGHVQRVKDVLVDCDGDAVVLKVEQEGGACHTGYRSCFYRSIDGDELKVREDAVKVFDPEEIYGDG | not failed
MIKSTNIQAIGSGIMHQINNVYSLTPLSLPMELTPSCNEFYLKTWSEWEKNGTPGEQRNIAFNRLKICLQNQEAELNLSELDLKTLPDLPPQITTLEIRKNLLTHLPDLPPMLKVIHAQFNQLESLPALPETLEELNAGDNKIKELPFLPENLTHLRVHNNRLHILPLLPPELKLLVVSGNRLDSIPPFPDKLEGLALANNFIEQLPELPFSMNRAVLMNNNLTTLPESVLRLAQNAFVNVAGNPLSGHT | failed
MIKTHYAKLALSAFAVSILASCANLGMTGVADGNNSEQTYLGQINYQDQTITKASAKKLNREIDLQRASQLTLWAMPMVGMYQSYNSTIALFDLQEGDAPIIGLHEGYDGVYPFLTANVTTPYTISLVDLSETGPYVVNIPAGSIFGVANNAWQEPIKEIGSGNKETLLFVGPGQEYPKDFDGEVIQSDTNQILYFYRVLGVGAEAEKLKTAVTAYKLSDVANPPQVKFVIYKPKASDADVTIATQPRGMAYWEVVNQYIQNEPMADRDRFFYAWLKDLGIEKGKAFNPTPYQKEILLEGVNTGMAMAQSLAFNKTKKKFSSSLYGSDSGWEGVLAGMDPKIDLDTYSMINERTAYTYEAVTTSAGMIVENPGHGSAYIGSYYDADGNALMGGKNYTLHIEPNPPAANFWSITVYDIKNRLIIRNEIKRSDLSSRSESLVMNSDGSVDLYFGPEAPEGKEGNWIQSNDGESYFMYLRLYGPEQEYFDQTYPMNKIDKTK | failed
MIKVRVASRARAAEGIAQLDLVCAEGRDLPAFEAGAHIDLFLGNGLTRQYSLCSDPAERSFYRIAVLRELTSRGGSAYVHEALTEGATLEISPPRNLFALDETAEEHLLFAGGVGVTPILAMAKRLSALGRAFTFHYCARDRSRAAFLNELSTAPFTSAVRLSFDAEPDTRLDLDVALARPKPGRRLYVCGPGGFMTHVIDGALARGWSGDQIRKEHFAAAPLSAGQDQPFELVIASSGQIVTVAADQTAAQALEAAGVFVPVSCEQGVCGTCLTRVIDGQPDHRDAFQTDEERAANDQFTPCCSRARSPRLVLDL | failed
MIKVWLQQGRGLWLALFLGLLSPALVHAEEAPPGLVKVPLDRRVIDLTATLDSATQERMVHKLEALEQRRGAQIAVMLVPNLGQQSIEALSNQLFRAWKLGRKGVDDGILLLVAKNDHKVRIEVGYGLEPVVTDLLAGQIIAQDLTPAFRQGDFAGGIDRALDDLILLVDGGSLPEPAGLAVPLEAYALLLAFVFGSVAGVMLAAGWNWRRVLGGAVVLMAVLVGAVGGHEWLAQLFLVPLCMLIGGATFAGLWQARRVFYGVLGLLLYIGLLTLVSQYLGRLTFLYGLAWPAGVLLVLGGHWLLYWMMRNSWRKSPRGFLWRFAVLLTLVLLMGLGVDAWQAAQRWLRVVPFAYFLSFILFAGGSGFRWSSGGGSSSGGRSSSGGGFSGGGGSSGGGGASGSW | failed
MILHRYLLRESLPVLLLALLFLTAVYLFGFFYAGARWLEGVPLPKILRWLSYHVPGIWVQVFPIALVTTTVLVFGRLAAEGAHFALLSAGIPLGRAALPLVAVGAVLSGLALYLQEYVVPEANNRVRVAWWDEIHTQGAGLFRLKGMQIPIGQGKSLYFQDFDMAAKEMVGVRITAFQGEVGTFLFAERGTWEDKTLTLKDYRYYQVDFAQVPGLETAPDLLAQVRRVFRVVSQGKTLEVTSDLSRARAIADYADTFSFGQDSLSEAWRKLKDPFLPPLEKWRARLELHSKLALPLANLVLVLLAAAMALRYGKSPGLALGMSVVLALAYYGAFFLGRALAGIGALPPELGAWGANLLFLLLGLRALR | failed
MILKSSIDRLLQTIDIVEVISSYVNLRKSGSSYMACCPFHEERSASFSVNQIKGFYHCFGCGASGDSIKFVMAFEKLSFVEALEKLAHRFNIVLEYDKGVYYDHKEDYHLLEMVSSLYQEELFNAPFFLNYLQKRGLSLESIKAFKLGLCTNRIDYGIENKGLNKDKLIELGVLGKSDNDQKTYLRFLDRIMFPIYSPSAQVVGFGGRTLKEKAAKYINSPQSKLFDKSSLLYGYHLAKEHIYKQKQVIVTEGYLDVILLHQAGFKNAIATLGTALTPSHLPLLKKGDPEILLSYDGDKAGRNAAYKASLMLAKEQRRGGVILFENNLDPADMIANGQIETLKNWLSHPMAFIEFVLRRMADSYLLDDPLEKDKALKEMLGFLKNFSLLLQSEYKPLIATLLQAPLHVLGIRERVSFQPFYPKTEKPNRPQRFAHVSSAPSLEFLEKLVIRYLLEDRSLLDLAVGYIHSGVFLHKKQEFDALCQEKLDDPKLVALLLDANLPLKKGGFEKELRLLILRYFERQLKEIPKSSLPFSEKMICLKKARQAIMKLKQGELVAI | failed
MILLGVSERSDHSLHITGVDDAHKLVQDFWNTVHDSSTISSVVLSENDVVVRHTGQGDIVSIDIPRASRERIPVYVGPNPLKGSYRRNGDGDYLCDSETVHAMLRDSDLRPLDRKIVGG | failed
MILMMENRMPKGIQKTETSEKNIEKVLNAYDKQQHHHQDDLAIQYLPAVRAMAFRLKERLPSSIDFNDLVSIGTEELIKLARRYESALNDSFWGYAKTRVNGAMLDYLRSLDVISRSSRKLIKSIDIEITKHLNEHGKEPSDAYLAQTLGENIEKIKEAKTASDIYALVPIDEQFNAIEQDEITKKIEAEELLEHVQKALNQMSEREQILIQLYYFEELNLSEIKEILGITESRISQIIKEVIKKVRKSLGVDHG | failed
MILPWLILIPFIGGLLCWLGERFGATLPRWIALLTMTLELALGLWLWAHGNYSFAPAPGADPTWAIEFKHVWIERFGINVHLALDGLSLLMILLTGLLGILSVLCSWKEIQRHVGFFHLNLMWILGGVVGVFLALDLFMFFFFWEMMLVPMYFLIALWGHSSADGKKTRIYAATKFFIFTQASGLIMLVAILGLVLVNFNNTGVITFDYAQLLKTKMSTATEYILMLGFFIAFAVKLPVVPFHSWLPDAHAQAPTAGSVDLAGILLKTAAYGLLRFALPLFPNASAEFAPIAMTLGLIGIFYGAFLAFAQTDIKRLIAFSSVSHMGFVLIGIYSGSQQALQGAVIQMLAHGVSAAALFILSGQLYERTHTRDMREMGGLWSRIAYLPAISLFFAAASLGLPGTGNFVGEFLILIGTFVSAPWITAIATSGLVFGSVYSLIMIHRAYFGPSKSDAVLHGMDARELIMVLGLAVLLIYIGVYPQPFLDTSAATMHGVQQWLSTAFTQLASAR | failed
MILSMSGVVLLGIVVFLFFRKDGLKGTHACTCALFGFYLSSTAIAPSIKAGGASLASLLGGIRF | failed
MILSMSIFGSIGFFSVQTGLPSFELVFVRCICATIFLALCWLVTGQYKSEQWNKKEIMQILACGVFLVFNWVFLFKAFEVMSITIAISVYHLAPIIVLMIGSIVFKERLTMFAVLSIVICFIGTVLVAGVDGSLSLEKLMSSGMVWALLAALFYAFTTLLGKGIQHTSAYAMTFLQTFLGIFLLLPFVDFGKFQGLTEMNWMMITATGLIHTGFVYYLFFDSLRDLSTRMISVLVFLDPAVAILLDTVFTGFRPTSMQVVGIVLIFVGMAFTFRKTKDEEIAVKEKLYS | failed
MILTILIGAMAAIFIAFNLFEKKEKYGVVSYKTIALSVTYVILAVIVGSFLDNFNTLFQGFHDSLTAAKRY | failed
MILTRSSLVKRLTLMIMFAVIAVLVVAGISFNMLSQHHFRMLDEQALSEKLESTRHILSIQAPGTGMEELRPQLRALLGAHQDLTAEILTSEGEVLFSDLKAVQIPDKYKRADKEEMWEWQDESHNFRGITTDVEIQGQPAPGTVMLMLDITSHAHFFETLQRWFAIGLVISALVSAGIGWLVAKSGLRPVEQITKVATSISARSLQERIPLEPVPLELQTLILSFNGMLARLEDAFVRLSNFSADIAHELRTPVSNLLTHTEVVLTRKRDVDAYEENLYSNLEDLKRMSRMIDDMLFLAKSDNGLIIPEQVDIQLHDLVSKLFEYYQLLADDRGIRLTLQGKGVISGDRLMIDRAVSNILSNAVRYTPDGSGISVEIQQAADKVTLTIKNGGATIDPQHINKIFDRFYRADPARREGGPSNAGLGLAITRSIVKAHDGKVWCTSSEGVTAFNFIFPAAHRTAHIRTRH | failed
MILTSTEGQEGLPRYFPQVMKMLARMQAGRLDIALPDGRVFRSEGPEPGPVARVDIHDTDVFARLIREGELGFSDAYLEQDWSTPDLRAFMDLVHQGEETVYDGFTGQFLARAYERLRFWLQRNHRKQAKKNISYHYDLGNDFYALWLDETMTYSSALFETGQESLEKAQEAKYASLLDEMGAQPGDHILEIGCGWGGFAEYAARQRGMRVTGLTISQEQFKFARERIEKAGLSDQVHFKLQDYRDETGSYDGIASIEMFEAVGEKYWPVYFDTVRARLKPGKRATLQIITVADRRWEIYRNGVDFIQKYIFPGGMLPAPGILREQVARAGLEFVQSREFGKSYDLTLRRWYETFNDKWDQVAELGFDDRFRRMWNFYLTSCGAAFDTGTCDVTQMTVARPNHS | failed
MIMIDLSLIWIVIIAVGVFIYIVLDGFDLGIGILFPFIKDQHERDVMMNTVAPVWDGNETWMVLGGAGLFAAFPMVYSAVLSALYLPIILMVIALIFRGVAFEFRFKANRTKHLWDAAFIGGSIISSFLQGVILGAYIQGIHIVDGRYAGGGLDWLTPFSLFTGVGVVVVYAALGCGWLIMKTDHRLQLNMYSLMPKLMYALLIIFVCVSIYTPLSQPQIAARWFTQPQLTYFSPVPILVVIFTFLTVRACSKRQESMPFLYTLALVFLAYTGFLISIFPYIIPPSVTIWDAAAPANSQLFALIGALILIPIIIMYTIMAYWVFRDKVRVGDEGYH | failed
